Sequences and labels used below:
B1: BglA (β-glucosidase A) (Paenibacillus polymyxa; T231K) (protein)
chain: TIFQFPQDFMWGTATAAYQIEGAYQEDGRGLSIWDTFAHTPGKVFNGDNGNVACDSYHRYEEDIRLMKELGIRTYRFSVSWPRIFPNGDGEVNQEGLDYYHRVVDLLNDNGIEPFCTLYHWDLPQALQDAGGWGNRRTIQAFVQFAETMFREFHGKIQHWLTFNEPWCIAFLSNMLGVHAPGLTNLQTAIDVGHHLLVAHGLSVRRFRELGTSGQIGIAPNVSWAVPYSKSEEDKAACARTISLHSDWFLQPIYQGSYPQFLVDWFAEQGATVPIQDGDMDIIGEPIDMIGINYYSMSVNRFNPEAGFLQSEEINMGLPVTDIGWPVESRGLYEVLHYLQKYGNIDIYITENGACINDEVVNGKVQDDRRISYMQQHLVQVHRTIHDGLHVKGYMAWSLLDNFEWAEGYNMRFGMIHVDFRTQVRTPKESYYWYRNVVSNNWLETRR
B2: BglA (β-glucosidase A) (Paenibacillus polymyxa; E96R) (protein)
chain: B1 chain with E95R, K230T
B3: BglA (β-glucosidase A) (Paenibacillus polymyxa) (protein)
chain: B1 chain with K230T
B4: BglA (β-glucosidase A) (Paenibacillus polymyxa; E96K) (protein)
chain: B1 chain with E95K, K230T
B5: BglA (β-glucosidase A) (Paenibacillus polymyxa; Q216R) (protein)
chain: B1 chain with Q215R, K230T

Residue numbers refer to the chain shown, from its start. In names and notes the source's numbering stands.

Substrate in the data set: O=[N+]([O-])c1ccc(O[C@@H]2O[C@H](CO)[C@@H](O)[C@H](O)[C@H]2O)cc1
In words: purified protein. The conditions noted are these: 50 mM citrate phosphate buffer, pH 7.0, 37 °C, 5.5 min, 0.02-3 mM pNPG.
For the protein B1, the Km amounted to 610 ± 70 µM, the kcat turned out to be 36.3 s⁻¹ and the kcat/Km came to 59300 M⁻¹ s⁻¹.
In the case of B2, the Km stood at 470 ± 20 µM, the kcat amounted to 21.2 s⁻¹ and the kcat/Km is 44800 M⁻¹ s⁻¹.
Take B3: the Km is 1210 ± 30 µM, the kcat was 44.7 s⁻¹ and the kcat/Km turned out to be 36900 M⁻¹ s⁻¹.
As for B4, the Km came to 190 ± 10 µM, the kcat turned out to be 28.4 s⁻¹ and the kcat/Km is 149000 M⁻¹ s⁻¹.
For the protein B5, the Michaelis-Menten constant (Km) is 460 ± 0 µM, the kcat was found to be 26 s⁻¹ and the kcat/Km was 56900 M⁻¹ s⁻¹.

For orientation: Km means the concentration of substrate that gives half-maximal velocity. What is called kcat is the number of substrate molecules converted per active site and unit of time at saturation. As usually defined, the kcat/Km is the turnover number divided by the Michaelis constant.

Source of the values: PMC4231051.
